Ends that are not written are not given here. * marks the point of attachment. Dansyl = CN(C)c1cccc2c(S(=O)(=O)*)cccc12
Tests used:
[1] = biological target: collagen; assay: fluorescence plate binding assay, collagen coated on 96-well high-binding plate, equilibrium fit
[2] = biological target: collagen; assay: SPR (Biacore 2000), collagen immobilised on CM-3 chip, peptide in solution 100 µM to 1.5 µM, from on-off kinetics

| Binder | Kd [1] [nM] | Kd [2] [nM] |
| --- | --- | --- |
| Dansyl-GRRANAALKAGELYKSILYGC [Dansyl-…] | 860 | – |
| RRANAALKAGELYKSILYGC [… (SILY) peptide] | – | 1200 |
